Measurements taken from US20250215412A1 (NOVOZYMES A S, published 2025).
Substitutions are numbered along the chain they refer to. In names and notes the source's numbering stands. One block for each binder: values may come before it.

Target: T1, Chryseobacterium sp-62563 deamidase polypeptide (second polypeptide, deamidase domain), wildtype (Chryseobacterium sp-62563)
T1 sequence: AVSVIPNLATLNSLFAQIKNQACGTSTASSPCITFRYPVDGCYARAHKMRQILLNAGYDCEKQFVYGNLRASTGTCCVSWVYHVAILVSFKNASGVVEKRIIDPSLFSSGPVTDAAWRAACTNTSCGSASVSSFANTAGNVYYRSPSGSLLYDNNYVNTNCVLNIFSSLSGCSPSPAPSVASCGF
Assay: cell-based or functional assay

- Relative activity of maturated deamidase (% initial rate): 52
B1: Chryseobacterium sp-62563 propeptide Y94R (protein)
chain: NQDPNLVAKESNETAMKDFGKTVPVGIEKEDGKFKISFMVTAQPYEIKDSKENAAYISMIKTAVENETPIHVFLKANTNEIAKVDKATDDDIRRFKSVFTKEVKEENRK

- Relative activity of maturated deamidase (% initial rate): 40
B2: Chryseobacterium sp-62563 propeptide E67T (protein)
chain: B1 chain with E67T, R94Y

- Relative activity of maturated deamidase (% initial rate): > 100
B3: Chryseobacterium sp-62563 propeptide M39Y (protein)
chain: B1 chain with M39Y, R94Y

- Relative activity of maturated deamidase (% initial rate): 44
B4: Chryseobacterium sp-62563 propeptide M39W (protein)
chain: B1 chain with M39W, R94Y

- Relative activity of maturated deamidase (% initial rate): 78
B5: Chryseobacterium sp-62563 propeptide E67H (protein)
chain: B1 chain with E67H, R94Y

- Relative activity of maturated deamidase (% initial rate): 95
B6: Chryseobacterium sp-62563 propeptide E67R (protein)
chain: B1 chain with E67R, R94Y

- Relative activity of maturated deamidase (% initial rate): 27
B7: Chryseobacterium sp-62563 propeptide E67V (protein)
chain: B1 chain with E67V, R94Y

- Relative activity of maturated deamidase (% initial rate): > 100
B8: Chryseobacterium sp-62563 propeptide M39S (protein)
chain: B1 chain with M39S, R94Y

- Relative activity of maturated deamidase (% initial rate): 37
B9: Chryseobacterium sp-62563 propeptide E67M (protein)
chain: B1 chain with E67M, R94Y

- Relative activity of maturated deamidase (% initial rate): 39
B10: Chryseobacterium sp-62563 propeptide M39N (protein)
chain: B1 chain with M39N, R94Y

- Relative activity of maturated deamidase (% initial rate): 55
B11: Chryseobacterium sp-62563 propeptide E67L (protein)
chain: B1 chain with E67L, R94Y

- Relative activity of maturated deamidase (% initial rate): 32
B12: Chryseobacterium sp-62563 propeptide I92K (protein)
chain: B1 chain with I92K, R94Y

- Relative activity of maturated deamidase (% initial rate): 54
B13: Chryseobacterium sp-62563 propeptide E67G (protein)
chain: B1 chain with E67G, R94Y

- Relative activity of maturated deamidase (% initial rate): > 100
B14: Chryseobacterium sp-62563 propeptide M39H (protein)
chain: B1 chain with M39H, R94Y

- Relative activity of maturated deamidase (% initial rate): 64
B15: Chryseobacterium sp-62563 propeptide D91H (protein)
chain: B1 chain with D91H, R94Y

- Relative activity of maturated deamidase (% initial rate): 51
B16: Chryseobacterium sp-62563 propeptide T88V (protein)
chain: B1 chain with T88V, R94Y

- Relative activity of maturated deamidase (% initial rate): 46
B17: Chryseobacterium sp-62563 propeptide T88R (protein)
chain: B1 chain with T88R, R94Y

- Relative activity of maturated deamidase (% initial rate): 32
B18: Chryseobacterium sp-62563 propeptide Y56P (protein)
chain: B1 chain with Y56P, R94Y

- Relative activity of maturated deamidase (% initial rate): 69
B19: Chryseobacterium sp-62563 propeptide E67D (protein)
chain: B1 chain with E67D, R94Y

- Relative activity of maturated deamidase (% initial rate): 41
B20: Chryseobacterium sp-62563 propeptide T88H (protein)
chain: B1 chain with T88H, R94Y

- Relative activity of maturated deamidase (% initial rate): 38
B21: Chryseobacterium sp-62563 propeptide I92M (protein)
chain: B1 chain with I92M, R94Y

- Relative activity of maturated deamidase (% initial rate): 31
B22: Chryseobacterium sp-62563 propeptide I92A (protein)
chain: B1 chain with I92A, R94Y

- Relative activity of maturated deamidase (% initial rate): 28
B23: Chryseobacterium sp-62563 propeptide T88F (protein)
chain: B1 chain with T88F, R94Y

- Relative activity of maturated deamidase (% initial rate): 28
B24: Chryseobacterium sp-62563 propeptide F73E (protein)
chain: B1 chain with F73E, R94Y

- Relative activity of maturated deamidase (% initial rate): 30
B25: Chryseobacterium sp-62563 propeptide E65P (protein)
chain: B1 chain with E65P, R94Y

- Relative activity of maturated deamidase (% initial rate): 42
B26: Chryseobacterium sp-62563 propeptide S58P (protein)
chain: B1 chain with S58P, R94Y

- Relative activity of maturated deamidase (% initial rate): 31
B27: Chryseobacterium sp-62563 propeptide D91M (protein)
chain: B1 chain with D91M, R94Y

- Relative activity of maturated deamidase (% initial rate): 69
B28: Chryseobacterium sp-62563 propeptide I92G (protein)
chain: B1 chain with I92G, R94Y

- Relative activity of maturated deamidase (% initial rate): 46
B29: Chryseobacterium sp-62563 propeptide E67A (protein)
chain: B1 chain with E67A, R94Y

- Relative activity of maturated deamidase (% initial rate): 49
B30: Chryseobacterium sp-62563 propeptide Y94K (protein)
chain: B1 chain with R94K

- Relative activity of maturated deamidase (% initial rate): 48
B31: Chryseobacterium sp-62563 propeptide D91S (protein)
chain: B1 chain with D91S, R94Y

- Relative activity of maturated deamidase (% initial rate): 56
B32: Chryseobacterium sp-62563 propeptide D91G (protein)
chain: B1 chain with D91G, R94Y

- Relative activity of maturated deamidase (% initial rate): > 100
B33: Chryseobacterium sp-62563 propeptide M39G (protein)
chain: B1 chain with M39G, R94Y

- Leakage activity: 0%
- Relative activity of maturated deamidase (% initial rate): 56
B34: Chryseobacterium sp-62563 propeptide V23Y (protein)
chain: B1 chain with V23Y, R94Y

- Relative activity of maturated deamidase (% initial rate): 96
B35: Chryseobacterium sp-62563 propeptide V25C (protein)
chain: B1 chain with V25C, R94Y

- Relative activity of maturated deamidase (% initial rate): 52
B36: Chryseobacterium sp-62563 propeptide T88I (protein)
chain: B1 chain with T88I, R94Y

- Relative activity of maturated deamidase (% initial rate): > 100
B37: Chryseobacterium sp-62563 propeptide E67K (protein)
chain: B1 chain with E67K, R94Y

- Relative activity of maturated deamidase (% initial rate): 42
B38: Chryseobacterium sp-62563 propeptide E67S (protein)
chain: B1 chain with E67S, R94Y

- Relative activity of maturated deamidase (% initial rate): 46
B39: Chryseobacterium sp-62563 propeptide E67F (protein)
chain: B1 chain with E67F, R94Y

- Relative activity of maturated deamidase (% initial rate): 66
B40: Chryseobacterium sp-62563 propeptide T88G (protein)
chain: B1 chain with T88G, R94Y

- Relative activity of maturated deamidase (% initial rate): 95
B41: Chryseobacterium sp-62563 propeptide M39E (protein)
chain: B1 chain with M39E, R94Y

- Relative activity of maturated deamidase (% initial rate): 27
B42: Chryseobacterium sp-62563 propeptide E30W (protein)
chain: B1 chain with E30W, R94Y

- Relative activity of maturated deamidase (% initial rate): 40
B43: Chryseobacterium sp-62563 propeptide I92S (protein)
chain: B1 chain with I92S, R94Y

- Relative activity of maturated deamidase (% initial rate): > 100
B44: Chryseobacterium sp-62563 propeptide F38G (protein)
chain: B1 chain with F38G, R94Y

- Relative activity of maturated deamidase (% initial rate): > 100
B45: Chryseobacterium sp-62563 propeptide M39Q (protein)
chain: B1 chain with M39Q, R94Y

- Relative activity of maturated deamidase (% initial rate): 28
B46: Chryseobacterium sp-62563 propeptide D91Q (protein)
chain: B1 chain with D91Q, R94Y

- Relative activity of maturated deamidase (% initial rate): > 100
B47: Chryseobacterium sp-62563 propeptide F38D (protein)
chain: B1 chain with F38D, R94Y

- Relative activity of maturated deamidase (% initial rate): 45
B48: Chryseobacterium sp-62563 propeptide M39F (protein)
chain: B1 chain with M39F, R94Y

- Relative activity of maturated deamidase (% initial rate): 31
B49: Chryseobacterium sp-62563 propeptide I92L (protein)
chain: B1 chain with I92L, R94Y

- Relative activity of maturated deamidase (% initial rate): 31
B50: Chryseobacterium sp-62563 propeptide E67I (protein)
chain: B1 chain with E67I, R94Y

- Relative activity of maturated deamidase (% initial rate): 33
B51: Chryseobacterium sp-62563 propeptide T88K (protein)
chain: B1 chain with T88K, R94Y

- Relative activity of maturated deamidase (% initial rate): > 100
B52: Chryseobacterium sp-62563 propeptide E67W (protein)
chain: B1 chain with E67W, R94Y

- Relative activity of maturated deamidase (% initial rate): 46
B53: Chryseobacterium sp-62563 propeptide E67C (protein)
chain: B1 chain with E67C, R94Y

- Relative activity of maturated deamidase (% initial rate): 65
B54: Chryseobacterium sp-62563 propeptide Y45L (protein)
chain: B1 chain with Y45L, R94Y
